± gives the standard deviation of the averaged measurements.
Experiment: total protein half-life in vivo (active degradation + dilution); higher = more stable protein
[1] = E. coli NCM3722 delta-clpP delta-lon delta-hslV, growth: N-lim chemostat, doubling time 6 h
[2] = wild type E. coli NCM3722, growth: C-lim chemostat, doubling time 6 h
[3] = wild type E. coli NCM3722, growth: C-lim chemostat, doubling time 12 h
[4] = E. coli NCM3722 delta-clpP, growth: N-lim chemostat, doubling time 6 h
[5] = E. coli NCM3722 delta-hslV, growth: N-lim chemostat, doubling time 6 h
[6] = E. coli NCM3722 delta-lon, growth: N-lim chemostat, doubling time 6 h
[7] = E. coli NCM3722 delta-smpB, growth: N-lim chemostat, doubling time 6 h
[8] = wild type E. coli NCM3722, growth: C-lim chemostat, doubling time 3 h
[9] = wild type E. coli NCM3722, growth: N-lim chemostat, doubling time 6 h
[10] = wild type E. coli NCM3722, growth: N-lim chemostat, doubling time 12 h
[11] = wild type E. coli NCM3722, growth: P-lim chemostat, doubling time 6 h
[12] = wild type E. coli NCM3722, growth: P-lim chemostat, doubling time 12 h

Sequence	total protein half-life in vivo [1] [h]	total protein half-life in vivo [2] [h]	total protein half-life in vivo [3] [h]	total protein half-life in vivo [4] [h]	total protein half-life in vivo [5] [h]	total protein half-life in vivo [6] [h]	total protein half-life in vivo [7] [h]	total protein half-life in vivo [8] [h]	total protein half-life in vivo [9] [h]	total protein half-life in vivo [10] [h]	total protein half-life in vivo [11] [h]	total protein half-life in vivo [12] [h]
MILHPSLASANPLHYGRELTALDNLDFGSLHLDIEDSSFINNITFGMKTVQAVARQTPHPLSFHFMLARPQRWFNALAEIRPAWIFVHAETLDYPSETLTEIRHTGARAGLVFNPATPIDAWRYLASELDGVMVMTSEPDGQGQRFIPSMCEKIQKVRTAFPQTECWADGGITLAAAQQLAAAGAQHMVIGRALFSSSDYRATLAQFATL	5.63 ± 0.16	1.44	0.974									
MINYGVVGVGYFGAELARFMNMHDNAKITCVYDPENGENIARELQCINMSSLDALVSSKLVDCVIVATPNYLHKEPVIKAAKNKKHVFCEKPIALSYEDCVDMVKACKEAGVTFMAGHIMNFFNGVQYARKLIKEGVIGEILSCHTKRNGWENKQERLSWKKMKEQSGGHLYHHIHELDCVQHLLGEIPETVTMIGGNLAHSGPGFGNEDDMLFMTLEFPSGKLATLEWGSAFNWPEHYVIINGTKGSIKIDMQETAGSLRIGGQTKHFLVHETQEEDDDRRKGNMTSEMDGAIAYGHPGKKTPLWLASLIRKETLFLHNILCGAKPEEDYIDLLNGEAAMSAIATADAATLSRSQDRKVKISEIIKHTSVM	5.16	6.07 ± 0.59	11.2 ± 1.7	4.32	4.31 ± 0.18	4.79 ± 0.4	4.29 ± 0.068	2.75 ± 0.66	4.39 ± 0.38	7.48 ± 0.85	6.27 ± 0.24	13.4 ± 1.4
MIPDVSQALAWLEKHPQALKGIQRGLERETLRVNADGTLATTGHPEALGSALTHKWITTDFAEALLEFITPVDGDIEHMLTFMRDLHRYTARNMGDERMWPLSMPCYIAEGQDIELAQYGTSNTGRFKTLYREGLKNRYGALMQTISGVHYNFSLPMAFWQAKCGDISGADAKEKISAGYFRVIRNYYRFGWVIPYLFGASPAICSSFLQGKPTSLPFEKTECGMYYLPYATSLRLSDLGYTNKSQSNLGITFNDLYEYVAGLKQAIKTPSEEYAKIGIEKDGKRLQINSNVLQIENELYAPIRPKRVTRSGESPSDALLRGGIEYIEVRSLDINPFSPIGVDEQQVRFLDLFMVWCALADAPEMSSSELACTRVNWNRVILEGRKPGLTLGIGCETAQFPLPQVGKDLFRDLKRVAQTLDSINGGEAYQKVCDELVACFDNPDLTFSARILRSMIDTGIGGTGKAFAEAYRNLLREEPLEILREEDFVAEREASERRQQEMEAADTEPFAVWLEKHA [P0A6W9]	4.67 ± 0.094	6.04 ± 0.38	9.533 ± 0.031	4.57 ± 0.48	4.96 ± 0.18	5.15 ± 0.6	4.55 ± 0.18	3.36 ± 0.2	4.35 ± 0.33	7.2 ± 0.27	6.1209 ± 0.0053	11.4 ± 0.35
MIPEKRIIRRIQSGGCAIHCQDCSISQLCIPFTLNEHELDQLDNIIERKKPIQKGQTLFKAGDELKSLYAIRSGTIKSYTITEQGDEQITGFHLAGDLVGFDAIGSGHHPSFAQALETSMVCEIPFETLDDLSGKMPNLRQQMMRLMSGEIKGDQDMILLLSKKNAEERLAAFIYNLSRRFAQRGFSPREFRLTMTRGDIGNYLGLTVETISRLLGRFQKSGMLAVKGKYITIENNDALAQLAGHTRNVA [P0A9E5]	4.34 ± 0.13	1.708 ± 0.0036	2.2 ± 0.069	2.99 ± 0.00054	1.2 ± 0.057	1.4 ± 0.028	1.24 ± 0.03	1.23 ± 0.064	1.35 ± 0.091	1.68 ± 0.09	1.65 ± 0.039	2.37 ± 0.86
MIPFNAPPVVGTELDYMQSAMGSGKLCGDGGFTRRCQQWLEQRFGSAKVLLTPSCTASLEMAALLLDIQPGDEVIMPSYTFVSTANAFVLRGAKIVFVDVRPDTMNIDETLIEAAITDKTRVIVPVHYAGVACEMDTIMALAKKHNLFVVEDAAQGVMSTYKGRALGTIGHIGCFSFHETKNYTAGGEGGATLINDKALIERAEIIREKGTNRSQFFRGQVDKYTWRDIGSSYLMSDLQAAYLWAQLEAADRINQQRLALWQNYYDALAPLAKAGRIELPSIPDGCVQNAHMFYIKLRDIDDRSALINFLKEAEIMAVFHYIPLHGCPAGEHFGEFHGEDRYTTKESERLLRLPLFYNLSPVNQRTVIATLLNYFS	4.72 ± 0.099	6.6 ± 1	12.5 ± 1.2	4.4 ± 0.0057	4.83 ± 0.25	4.45	4.25 ± 0.17	2.89 ± 0.68	5.2	8.13 ± 0.2	6.1125 ± 0.0047	12.33 ± 0.05
MIPLQHGLILAAILFVLGLTGLVIRRNLLFMLIGLEIMINASALAFVVAGSYWGQTDGQVMYILAISLAAAEASIGLALLLQLHRRRQNLNIDSVSEMRG [P0AFE4]		7.48 ± 0.41	11.7	6.43	7.8	> 8	5.17	3.31			7.16 ± 0.3	13.1 ± 1.5

— the supplement of paper PMC11246515
